The values that follow come from patent publication US20200347139A1 (INHIBRX BIOSCIENCES, published 2020).

Test [1] addresses T1, human CLEC12a expressed on transiently transfected HEK 293 cells (human, UniProt Q5QGZ9 1-265).
T1 construct: also called CLL-1; CLL1
T1 sequence: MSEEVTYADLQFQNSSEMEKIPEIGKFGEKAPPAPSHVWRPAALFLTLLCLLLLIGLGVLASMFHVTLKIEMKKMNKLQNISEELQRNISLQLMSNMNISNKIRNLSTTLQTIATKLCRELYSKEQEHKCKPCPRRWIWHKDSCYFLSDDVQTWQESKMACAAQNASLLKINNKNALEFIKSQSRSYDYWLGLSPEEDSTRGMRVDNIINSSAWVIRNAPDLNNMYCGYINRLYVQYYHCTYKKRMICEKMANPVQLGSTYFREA
Put plainly: flow cytometry on HEK 293 cells transfected with human CLEC12a; apparent Kd, one-site fit. How it is done: (§1) Binding of sdAbs to human CLEC12a was assessed by flow cytometry. […] HEK 293 cells were transiently transfected with a plasmid encoding CLEC12a (UniProt Accession No. Q5QGZ9.3; SEQ ID NO: 1) and used as the positive cell line, and untransfected HEK 293 cells were used as CLEC12a-negative cells. Each cell type was plated at 30,000 cells/well in FACS buffer (PBS 1% BSA, 0.1% NaN₃ pH 7.4) on a 96-well round-bottom plate. The sdAbs were diluted in FACS buffer in a 3-fold, 11 point serial dilution. The sdAb dilutions were added to the plated cells, and assay plates were incubated for 30 minutes at 4° C. After washing twice in 150 μL of FACS buffer, cells in each well were resuspended in 100 μL of 1:2000 Alexa Fluor 647-conjugated Anti-Human IgG secondary diluted in FACS buffer and incubated at 4° C. for 30 minutes. The cells were washed twice more, then bound antibody was detected by flow cytometry.
(§2) Flow cytometric analysis was performed on an Intellicyte iQue Plus and fluorescence was plotted as median fluorescence intensity. The apparent affinity (Kd, nM) was determined using one site binding non-linear regression in PRISM graph software.
For orientation: Flow cytometry measures light scatter and fluorescence of single cells or particles in a stream.

Test [2] addresses T2, mFc-CLEC12a-ECD (human).
T2 construct: It was immobilized on anti-mFc capture sensors for BLI; also called CLEC12a antigen
T2 chain: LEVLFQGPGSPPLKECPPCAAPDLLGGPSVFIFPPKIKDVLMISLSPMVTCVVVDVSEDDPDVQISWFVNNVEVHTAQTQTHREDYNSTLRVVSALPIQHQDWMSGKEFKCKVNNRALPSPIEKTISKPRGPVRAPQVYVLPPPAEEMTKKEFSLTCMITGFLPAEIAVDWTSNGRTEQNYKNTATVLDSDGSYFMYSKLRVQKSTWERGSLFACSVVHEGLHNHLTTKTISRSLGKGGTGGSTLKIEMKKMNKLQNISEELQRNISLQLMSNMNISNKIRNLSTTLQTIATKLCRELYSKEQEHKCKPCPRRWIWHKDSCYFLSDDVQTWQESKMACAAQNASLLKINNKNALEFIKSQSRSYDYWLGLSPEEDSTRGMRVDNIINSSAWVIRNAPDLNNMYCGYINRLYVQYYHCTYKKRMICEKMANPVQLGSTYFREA
Put plainly: BLI epitope binning; mFc-CLEC12a-ECD on anti-mFc sensors, 100 nM sdAb. On the procedure:
(§3) The epitopes of single domain antibodies (sdAbs) that comprise VHH domains that bind CLEC12a were compared using Bio-Layer Interferometry. 7 μg/mL of mFc-CLEC12a-ECD (SEQ ID NO: 87) was immobilized on anti-mFc coated capture sensors. 100 nM of one sdAb was then loaded onto the CLEC12a antigen and allowed to come to equilibrium. The sensors were then transferred into 100 nM of a second sdAb.

Test [3] has as its target T1, human CLEC12a expressed on transiently …. Nature of the test: flow cytometry on HEK 293 cells transiently transfected with human CLEC12a, Alexa Fluor 647 anti-human IgG secondary, median fluorescence. On the procedure:
as §1, §2

The target of test [4] is T2, mFc-CLEC12a-ECD. Nature of the test: BLI, mFc-CLEC12a-ECD on anti-mFc sensors first loaded with 100 nM hzMB11v13, then 100 nM second sdAb. On the procedure: as §3

B1: MH07 sdAb (VHH MH07 fused to human IgG1 xELL Fc) (Fc fusion)
chain: QVQLVQSGGGLVQPGGSLRLSCVASGLLFSIYDMNWYRQAPGKEREWIAGITNNGYSTAYTDSVQGRFTISRDNAKNTVYLQMNSLKPEDTAVYYCHTDEWGREYWGQGTQVTVDKTHTCPPCPAPGGPSVFLFPPKPKDTLMISRTPEVTCVVVDVSHEDPEVKFNWYVDGVEVHNAKTKPREEQYNSTYRVVSVLTVLHQDWLNGKEYKCKVSNKALPAPIEKTISKAKGQPREPQVYTLPPSRDELTKNQVSLTCLVKGFYPSDIAVEWESNGQPENNYKTTPPVLDSDGSFFLYSKLTVDKSRWQQGNVFSCSVMHEALHNHYTQKSLSLSPGK
notes: Camelid parental VHH; No linker is stated; also called MH07-IgG1
With B1, in test [1], the Kd came to 0.1 nM.

B2: hzMH07v3 sdAb (VHH hzMH07v3 fused to human IgG1 xELL Fc) (Fc fusion)
chain: EVQLVESGGGEVQPGGSLRLSCAASGLLFSIYDMNWYRQAPGKEREWVAGITNNGYSTAYAESVKGRFTISRDNAKNTVYLQMSSLRAEDTAVYYCHTDEWGREYWGQGTLVTVDKTHTCPPCPAPGGPSVFLFPPKPKDTLMISRTPEVTCVVVDVSHEDPEVKFNWYVDGVEVHNAKTKPREEQYNSTYRVVSVLTVLHQDWLNGKEYKCKVSNKALPAPIEKTISKAKGQPREPQVYTLPPSRDELTKNQVSLTCLVKGFYPSDIAVEWESNGQPENNYKTTPPVLDSDGSFFLYSKLTVDKSRWQQGNVFSCSVMHEALHNHYTQKSLSLSPGK
notes: Humanized version of MH07; No linker is stated; also called hzMH07v3-IgG1; haMH07v3
With B2, the binding result with mFc-CLEC12a-ECD [2] is “binds”. Moreover, the Kd in test [1] stood at 0.28 nM.

B3: MC02 sdAb (VHH MC02 fused to human IgG1 xELL Fc) (Fc fusion)
chain: QVQLVQSGGGLAQPGGSLRLSCTASGFTFRINDMGWYRQAPGKECEMVAGISNNGFSTAYADSVKGRFTISRDNAKNTVSLQMDSLKSEDTAVYYCHRTDDGAAHACSRGQGTQVTVDKTHTCPPCPAPGGPSVFLFPPKPKDTLMISRTPEVTCVVVDVSHEDPEVKFNWYVDGVEVHNAKTKPREEQYNSTYRVVSVLTVLHQDWLNGKEYKCKVSNKALPAPIEKTISKAKGQPREPQVYTLPPSRDELTKNQVSLTCLVKGFYPSDIAVEWESNGQPENNYKTTPPVLDSDGSFFLYSKLTVDKSRWQQGNVFSCSVMHEALHNHYTQKSLSLSPGK
notes: Camelid parental VHH; No linker is stated; also called MC02-IgG1
Consider B3, for which the Kd in test [1] amounted to 0.37 nM.

B4: hzMC02v6 sdAb (VHH hzMC02v6 fused to human IgG1 xELL Fc) (Fc fusion)
chain: EVQLVESGGGEVQPGGSLRLSCAASGFTFRINDMGWYRQAPGKECEMVAGISNNGFSTAYAESVKGRFTISRDNAKNTVYLQMSSLRAEDTAVYYCHRTDEGAAHACSRGQGTLVTVDKTHTCPPCPAPGGPSVFLFPPKPKDTLMISRTPEVTCVVVDVSHEDPEVKFNWYVDGVEVHNAKTKPREEQYNSTYRVVSVLTVLHQDWLNGKEYKCKVSNKALPAPIEKTISKAKGQPREPQVYTLPPSRDELTKNQVSLTCLVKGFYPSDIAVEWESNGQPENNYKTTPPVLDSDGSFFLYSKLTVDKSRWQQGNVFSCSVMHEALHNHYTQKSLSLSPGK
notes: Humanized version of MC02; No linker is stated; also called hzMC02v6-IgG1
On to B4, for which, in the test with mFc-CLEC12a-ECD [2], the binding result is given as “binds”. Moreover, the Kd in test [1] is 0.35 nM.

B5: ME02 sdAb (VHH ME02 fused to human IgG1 xELL Fc) (Fc fusion)
chain: QVQLQQSGGGLVQVGGSQRLSCAASGRTFEYDDMVWFRQAPGKEREEVAGISWSGGSIYYADSVKGRFSISRDNAKNTVYLEMNRLKPEDTAVYYCNVGSYWGQGTQVTVDKTHTCPPCPAPGGPSVFLFPPKPKDTLMISRTPEVTCVVVDVSHEDPEVKFNWYVDGVEVHNAKTKPREEQYNSTYRVVSVLTVLHQDWLNGKEYKCKVSNKALPAPIEKTISKAKGQPREPQVYTLPPSRDELTKNQVSLTCLVKGFYPSDIAVEWESNGQPENNYKTTPPVLDSDGSFFLYSKLTVDKSRWQQGNVFSCSVMHEALHNHYTQKSLSLSPGK
notes: Camelid parental VHH; No linker is stated; also called ME02-IgG1
By EC50 (read off the curve) is commonly meant the concentration that produces a half-maximal response. Take B5: the “EC50 (read off the curve)” value in test [3] is roughly 1 nM. The Kd in test [1] worked out at 1.2 nM.

B6: MB11 sdAb (VHH MB11 fused to human IgG1 xELL Fc) (Fc fusion)
chain: QVQLQQSGGGLVQPGGSLRLSCVASGFLFSIYDMNWYRQAPGKEREWIAGITNNGYSTAYTDSVQGRFTISRDNAKNTIYLQMTSLKPEDTAVYYCHADLTKCYDGEYAWGQGTQVTVDKTHTCPPCPAPGGPSVFLFPPKPKDTLMISRTPEVTCVVVDVSHEDPEVKFNWYVDGVEVHNAKTKPREEQYNSTYRVVSVLTVLHQDWLNGKEYKCKVSNKALPAPIEKTISKAKGQPREPQVYTLPPSRDELTKNQVSLTCLVKGFYPSDIAVEWESNGQPENNYKTTPPVLDSDGSFFLYSKLTVDKSRWQQGNVFSCSVMHEALHNHYTQKSLSLSPGK
notes: Camelid parental VHH; No linker between VHH and Fc is stated; Fc dimers are described only in general terms; also called MB11-IgG1
Consider B6, for which the “EC50 (read off the curve)” value in test [3] was roughly 50 nM. In test [1], the Kd is 58.6 nM.

B7: hzME06v16 sdAb (VHH hzME06v16 fused to human IgG1 xELL Fc) (Fc fusion)
chain: EVQLVESGGGEVQPGGSLRLSCAASGFTFDDYAIGWFRQAPGKEREGVSTISSSDGSTYYAESVKGRFTISRDNAKNTVYLQMSSLRAEDTAVYYCALREGLPLLLDTLWRQPVEYDYWGQGTQVTVDKTHTCPPCPAPGGPSVFLFPPKPKDTLMISRTPEVTCVVVDVSHEDPEVKFNWYVDGVEVHNAKTKPREEQYNSTYRVVSVLTVLHQDWLNGKEYKCKVSNKALPAPIEKTISKAKGQPREPQVYTLPPSRDELTKNQVSLTCLVKGFYPSDIAVEWESNGQPENNYKTTPPVLDSDGSFFLYSKLTVDKSRWQQGNVFSCSVMHEALHNHYTQKSLSLSPGK
notes: Humanized version of ME06; No linker is stated; also called hzME06v16-IgG1
For B7, in the test with mFc-CLEC12a-ECD [4], the binding result is “binds”. Besides, the Kd in test [1] is 0.06 nM.

B8: MC06 sdAb (VHH MC06 fused to human IgG1 xELL Fc) (Fc fusion)
chain: QVQLQESGGGLVQPGGSLRLSCAASGFTFSVYDMNWYRQTPGKEREWVAGISNNGFSTAYAGSVKGRFTISRDNAENTVYLQMNSLKSEDTAVYYCNLDVHGRVGAQGDYWGQGTQVTVDKTHTCPPCPAPGGPSVFLFPPKPKDTLMISRTPEVTCVVVDVSHEDPEVKFNWYVDGVEVHNAKTKPREEQYNSTYRVVSVLTVLHQDWLNGKEYKCKVSNKALPAPIEKTISKAKGQPREPQVYTLPPSRDELTKNQVSLTCLVKGFYPSDIAVEWESNGQPENNYKTTPPVLDSDGSFFLYSKLTVDKSRWQQGNVFSCSVMHEALHNHYTQKSLSLSPGK
notes: Camelid parental VHH; No linker is stated; also called MC06-IgG1
For the molecule B8, in test [3], the “EC50 (read off the curve)” value was in the range of 1 to 2 nM. Moreover, the Kd in test [1] came to 1.58 nM.

B9: hzMC06v2 sdAb (VHH hzMC06v2 fused to human IgG1 xELL Fc) (Fc fusion)
chain: EVQLVESGGGEVQPGGSLRLSCAASGFTFSVYDMNWYRQAPGKEREWVSGISNNGFSTAYAESVKGRFTISRDNAKNTLYLQMSSLRAEDTAVYYCNLDVHGRVGAQGDYWGQGTLVTVDKTHTCPPCPAPGGPSVFLFPPKPKDTLMISRTPEVTCVVVDVSHEDPEVKFNWYVDGVEVHNAKTKPREEQYNSTYRVVSVLTVLHQDWLNGKEYKCKVSNKALPAPIEKTISKAKGQPREPQVYTLPPSRDELTKNQVSLTCLVKGFYPSDIAVEWESNGQPENNYKTTPPVLDSDGSFFLYSKLTVDKSRWQQGNVFSCSVMHEALHNHYTQKSLSLSPGK
notes: Humanized version of MC06; No linker is stated; also called hzMC06v2-IgG1
On to B9, for which the “EC50 (read off the curve)” value in test [3] was roughly 10 nM. In addition, the binding result with mFc-CLEC12a-ECD [2] was “binds”. In test [1], the Kd came out at 14 nM.

B10: ME06 sdAb (VHH ME06 fused to human IgG1 xELL Fc) (Fc fusion)
chain: QVQLVQSGGGLVQAGGSLRLSCVASGFTFDDYAIGWFRQAPGKEREGVSCISNSDGSTYYADSVKGRFTISSDNAKNTVYLHVNSLNPEDTAVYYCALREGLPLLLDSLWRQPVEYDYWGQGTQVTVDKTHTCPPCPAPGGPSVFLFPPKPKDTLMISRTPEVTCVVVDVSHEDPEVKFNWYVDGVEVHNAKTKPREEQYNSTYRVVSVLTVLHQDWLNGKEYKCKVSNKALPAPIEKTISKAKGQPREPQVYTLPPSRDELTKNQVSLTCLVKGFYPSDIAVEWESNGQPENNYKTTPPVLDSDGSFFLYSKLTVDKSRWQQGNVFSCSVMHEALHNHYTQKSLSLSPGK
notes: Camelid parental VHH; No linker is stated; also called ME06-IgG1
With B10, in test [1], the Kd came out at 0.05 nM.
